# Experiment: soluble on expression in E. coli; label from the status in PepcDB or PDB records
row,Sequence,soluble on expression in E. coli
1,MSLNTGGNLLCVQLTVRRGPVREAKKPTPRIRNDGRYKIMQIGDLHLSTGVGACREAVPDSYNGGKCEADPRTLDFVNRVLDDEKPDLVVLSGDQVNGDTAPDAPTAMFKIVSLLIERKIPYAAIFGNHDDEKTMSREAQMAIMESLPFSLSTAGPADIDGVGNYYVEVLARGKTDHSALTIYLMDTHAYTPDERNFPGYDWVKPNQIEWFKKTAAGLKKNHNEYTGRHMDIAFIHIPLTEYADPALPRVGEWKEGVTAPVYNSGFRDALVEQGIVMVSAGHDHCNDYCSLSLAGEGETKIPALWMCYAGGSGFGGYAGYGGYHRRVRLFEVDTNEARIKTWKRLESGDTASRIDLQIIVDGGKPQPIAPVSEGHHHHHH,not soluble
2,MSLNTSLLILLVASFSSLVLSQNDSKKGGLPKKVHFSFGPAYLRNLTKEEKQQYYAIFGNKDLTIKQQEDQRLAFAEKHGFGQAIKDDIKLKAGNHELIRKERPEIIKNLLAAHEATMKIFDNKDQTLSQREAAVNALKKKYPHAPSTLYYISRLITGNGKHQTPFIKHH,not soluble
3,MSLNVFDATLKRLEYIFEEFDKVYFSFSGGKDSGLMVQLANLVAEKLDRNFDLLILNIEANYTATVDFIKKIEQLPRVKNIYHFCLPFFEDNNTSFFQPQWKMWDPSEKEKWIHSLPKNAITLENIDDGLKKYYSLSNGNPDRFLRYFQNWYKEQYPQSAISCGVGIRAQESLHRHSAVTKGENKYKNRCWINITLEGNILFYPLFDWKVGDIWAATFKCELEYNYIYEKMYKIGYKYRDMREGHHHHHH,soluble
4,MSLNYDWIKTRATFDEPKAAVIDPFKGTEWTYQDLNIRAENLANYLQEQGVQRGDVVGIFSPNDVALLDLLFASFKLGAVYLPINWRLKTQEIESVIADSDVKLIFYSAKHLSSLEGIADELIHMDIDSKTYDDIVDPTHHRPFTTVSVEGDDLASLMYTSGTTGLPKGVMFSYDSFVNNPINTALTYKVYASYTTIISTPMFHVLGFNDLTIPLLMAGGTLVLQRYFNGESLNDLMAQYQPNFLIQIPTMYYAMLVADNFDLKNFANIEFLIQGGAAPLPTVQKKFVSLGIPIITGYGLTEAPLVSVNTAANNERKPASIGQPVMFTDTRIFDDNFEEVQVGEIGELGVRGNNVTPGYWNKPEETAKAFSGEFFLTGDLAKIDEDGDVYIVDRRKEMIITGGENVLPSEVERVLSEHPLVAQGVVVGYDSPKYGESVSAAVVLTEDDPDFEQKLDAHMREHIAGYKIPRLYLKLTHIPLNSTSKPDKLEIQKYMNDKAQKQDQSKDEGHHHHHH,not soluble
5,MSLNYSDPVTFEILGVVANYGQEGCFMLAQLPPALQSLHLPLRLKLWDGNHFDLGPSPQVTILVKEPQLISQLTHPSMDQLGTAFVEGKLELEGDIGEAIRVCDELSEALLADEDETPPPRVSHDKTTDAKAISYHYDVSNAFYQLWLDQDMAYSCAYFREPDNTLDQAQQDKFDHLCRKLRLDAGDYLLDVGCGWGGLARFAAREYGAKVFGITLSKEQLKLGRKRVQAEGLADKVDLQILDYRDLPQDGRFDKVVSVGMFEHVGHANLALYCQKLFGAVREGGLVMNHGITAKHVDGRPVGRGAGEFIDRYVFPHGELPHLSMISASICEAGLEVVDVESLRLHYAKTLHHWSENLENQLHKAAALVPEKTLRIWRLYLAGCAYAFQKGWINLHQILAVKPYADGHHDLPWTREDLYREGHHHHHH,soluble
6,MSLPGSSNRPLPSSNDEFHYEDIELPSGYRSEGEVVDLLNPKDELEEPLFSEEPLFPVTTSIPTKTAVSKPKIAPTSAAKDVTFSSSIDSDDCSVAYDNSKPVRQYVLMIDAGSTGSRVHVYQFNNCNPSPKLEEEFFKMIEPGLSSFAGDPEGAAASLDPLLDYAMENVPEEYRRCSPIAVKATAGLRLTGESEAKAILKSVRQHLENDYPFPIVKDGVSILEGSMEGIYAWITINYLLGTLGGKATHSTVAVMDLGGASTQLVFEPRFASDGESLVDGDHKYVLDYNGEQYELYQHSHLGYGLKEARKLIHKFVLNNAEALKESLELLGDSTSIIHPCLHLNASLTHPDSKSEASEVVFVGPSLAHLSLQCRGIAEKALYKDKNCPVRPCSFNGVHQPKFTETFTDSPIYLISYFYDRMISLGMPSTFTIEDMKYLANSVCSGPTYWQDAFSLTDALKELKEEPEWCLDLNYMISLLSVGYEIPNNRQLHTAKKIDNKELGWCLGASLSMLSEQNNGWNCNVKEEIEGHHHHHH,not soluble
7,MSLPIDTWFPLAVSRNLLTPDPALHERMVAQIFQWRGDLWANPSGESAWTGDMNGVALVHEHPDFAWLRSQVEVEALQFCQALGFQTEALQLWIQRSWPVVSEPGQSIGAHHHPNAHLSAIYYLNGSGDPELGALRIFDDRPRNELVPGLAVGYGEVIAEEAALNQAWIDYPPQAGLLLMFPASTRHGVTENLTDLTRLSVSFDLYLTARSATELAPEYLAPPVNRWSPIQLREGHHHHHH,soluble
8,MSLPKPQLRIIAGDFEDPRIIALLAHHFATMRSTGPEESCHVMPLGTMRQADLDFFAAWDGDALAGFGAVKQLGDGHGEIKSMHTAAAYRGRGVGQAVLDHLSTHARALGLQRLSLETGAGDFFVPARAMYARNGFQTCDPFGDYKPDPNSVFMTRMLEGHHHHHH,not soluble
9,MSLPLIIPENIPAYELLKEHAFIMGLRRAKHQDIRPQEILIVNLMPKKIETENQILSLLANSPLQVNITLLATTSYVGKNTPFTHLEKFYKGLEEVKKHKFDGAIVTGAPVEQMDFEKVAYWEELLEIFDFLKQNVTSSMYICWGAMAALKYFYGVDKISLDKKIFGVYKHDKVSPDLLLTNLDEKVLMPHSRHSSMDEEQILALQKQGKLKILLRNKKIGSALLRDEKNIFILGHLEYFKETLHQEYVRDNFIQKAKNYYDKKGNIKYNWRSNANTIFANWLNYDVYQSTPFVLEGHHHHHH,soluble
10,MSLPRGLELLIAQTILQGFDAQYGRFLEVTSGAQQRFEQADWHAVQQAMKNRIHLYDHHVGLVVEQLRCITNGQSTDAAFLLRVKEHYTRLLPDYPRFEIAESFFNSVYCRLFDHRSLTPERLFIFSSQPERRFRTIPRPLAKDFHPDHGWESLLMRVISDLPLRLRWQNKSRDIHYIIRHLTETLGTDNLAESHLQVANELFYRNKAAWLVGKLITPSGTLPFLLPIHQTDDGELFIDTCLTTTAEASIVFGFARSYFMVYAPLPAALVEWLREILPGKTTAELYMAIGCQKHAKTESYREYLVYLQGCNEQFIEAPGIRGMVMLVFTLPGFDRVFKVIKDRFAPQKEMSAAHVRACYQLVKEHDRVGRMADTQEFENFVLEKRHISPALMELLLQEAAEKITDLGEQIVIRHLYIERRMVPLNIWLEQVEGQQLRDAIEEYGNAIRQLAAANIFPGDMLFKNFGVTRHGRVVFYDYDEICYMTEVNFRDIPPPRYPEDELASEPWYSVSPGDVFPEEFRHWLCADPRIGPLFEEMHADLFRADYWRALQNRIREGHVEDVYAYRRRQRFSVRYGEMLFEGHHHHHH,not soluble
11,MSLQNRIMITGAGSGLGREMALRWAREGWRLALSDINDAGLQETLALVREAGGDGFVQRCDVRDYSQLTAFAQTCEERFGGMDIIVNNAGVASGGFFNELSLEDWDWQIAINLMGVVKGCKAFLPMLQASKGKIINIASMAALMQAPAMSNYNVAKAGVVALSESLLVELRDQDVGVHVVCPSFFQTNLLDSFRGPTPAMKAQIGRLLEKSPITATDIADYIFTQVAEGEFMILPHEEGRLAWDMKRQQPQAMYDEMTVMCAKMRAKAQKGEGHHHHHH,soluble
12,MSLQRFNQRVWMMFGEFNLIDKYFSNRQAQRKDVHLALGDDCAIVKVPENSRVAISTDTLVAGTHFLAQANPAWVAHKALASNISDLAAMGATPAWVSLALTLPEIDDAWLTPFCDAFFELAKYYNVQLIGGDTTKGPLSITLTVQGFLPKEQAMLRSGAKVGDWLYVTGDLGDSQAGLDVILDPEKRHLPFADILEQRHYLSTPRIVAGQALVHLASSAIDISDGLIADLQHILRRSNVGASIDVSLLPLSKELLQFVDSVTSAQQYALTSGEEYELCFTIPEENRGSLENALAHCGTKVTCIGQIRPAGTFELHNQGKKLDWQLAGYDHFKVKAEGHHHHHH,soluble
13,MSLQRPVMLLSDDDSEVRRLVYDSLDRLGCEMEEPDNGEQALAAFRRIQPEIVLLDLAMTQADAFELCASLHGARGGERVSILAVAGRGDLEGVRRAIDAGATDFLIHPVDVEMLGLRLSCGRRSAQTRERLSRNEERNRGLIKGIPHLVLQISKEGTVLDFEAPRDFDLRQFPDGLRGRRIQDVFFADAPYVIVRCIERVIETAESQVLEHNVRIGNDIHVYETRILPNAEGEPTVVMRDVTERRKMEKEGHHHHHH,soluble
14,MSLRCPTCQYNGTRVVDSRPADDGNSIRRRRECEKCGFRFTTFEKVEESPLIVVKKDGAREEFAREKVRRGLIRACEKRPVSAEQIEEIVNEVERELRNIGDSEIASDLIGEKVMNKLANLDEVAYVRFASVYRQFKDISVFVEELKDLMEKNKEGHHHHHH,soluble
15,MSLRDYAEIAASGILRAVTEYNSISFYADGDTVSGFHYELLHAFAHSKGLKPEITPEMSFSKRLEDVQKGTYDILANSTVVTTEYKDSLLFTRPIILNKQVLVQRKPEKENDSLYIHSQLELARKTLHLVKNSPAILRIHNLSNEIGDTIYIKEVEKYGQEQLLAMVAHGDIDYAVCDESIAKASINDFPQLDIETAISFSQFYSWGVSKHSPILLDSLNSWLNDYVKTPAFKLLRKKYYNNEGHHHHHH,soluble
16,MSLRFDGKVAIVTGAGGGLGKTYALELAKRGCKVVVNDLGGDRHGTSSSSSMADKVVQEIKSAGGQAVANYDSVEFGDKIVKTAIDNFGRIDIVINNAGILRDVSFLKMTELDWDLIFKVHVKGAYAVTKAAWPYMRDQKYGRIVVTSSNAGVHGNFGQANYAAAKSALIGLSNSLAQEGAKYNILANTLVPTAGSRLTETVMPQNLVDALKPDYVTPLVTYMVHDSFEESGKVFEAGAGWYGTIQYYKSKGKVISHASADDIAKNWSTITNMNGAEYIGTITEQSARLVSILEEHEASSGSSSASSGASSGGAFPSNIRSSALFQEMADGVKADPTAVKTLKSIVLYIITDGKNELGKFTLDFKSASPSVYLGDVKNGEKANATVTVADSDFVDIAAGKLNAQKAFMSGKLKVKGNVMLLQKLQTVLEKAKKSKL,not soluble
17,MSLRHLQSTIHPELDHLDDKIIFQRNAARAIVLDGEDVLLLYTERYHDYTLPGGGIDEGEDVIAGLVRELEEETGAQNIHSIKPFGIFEEFRPWYKDDADVMHMISYCYTCKIDRELGETAYEDYEVKNGMRPVWMNVHEAIAHNEKTMAESPKKGMSIERETFLLHLIAKELLEGHHHHHH,soluble
18,MSLRHVIREVRADLIASPVQTGFQDATRKVETVGMCVIRVNTDQGLTGIGVTYHEVGGEAIKEMIERYYGPKLIGRDPFETEEIWEELFHYARGVGRKGLSFCALSAVDIALWDLKGKIMDLPLYRLLGGNKKKVPVYASGGWTSYDDDALVAEALEMVRRGYKMIKLKVGVEGGRNIRRDTQRCRKVREAIGPDIGFMVDANNAFHSGDAVRLANEIREYDILFFEEPVFADDIPGLRRFRQGTDIPLGTGEHEYTRYGARDLILGEAVDYLQMDVTRCGGITEMLKVIALSQAWNLAFAPHAMEHIHMHLVSAAANGAFLERLFLFEDITAMVFKDAPVPEEGILTIPDKPGLGLELNSEFLREGHHHHHH,soluble
